Laboratory results as given in US20220402995A1 (TOSOH, published 2022).
Residue numbers refer to the chain shown, from its start.

B1: AAV-binding protein No. 26 (Asn329Tyr, Lys399Arg) (receptor)
chain: MGSAGESVQITLPKNEVQLYAYVLQEPPKGETYTYDWQLITHPRDYSGEMEGKHSQILKLSKLTPGLYEFKVIVEGQNAHGEGYVNVTVRPEPRKNRPPIAIVSPQFQEISLPTTSTVIDGSQSTDDDKIVQYHWEELKGPLREEKISEDTAILKLSKLVPGNYTFSLTVVDSDGATNSTTANLTVNKAVDHHHHHH
B2: AAV-binding protein No. 28 (Tyr331Cys, Glu384Gly) (receptor)
chain: B1 chain with Y20N, Y22C, E75G, R90K
B3: AAV-binding protein No. 50 (Val332Gln, Tyr342Cys, Val412Ala) (receptor)
chain: B1 chain with Y20N, V23Q, Y33C, R90K, V103A
B4: AAV-binding protein No. 44 (Gln327Arg, Lys338Arg, Leu348Pro) (receptor)
chain: B1 chain with Q18R, Y20N, K29R, L39P, R90K
B5: AAV-binding protein No. 27 (Tyr331Cys, Leu376Pro) (receptor)
chain: B1 chain with Y20N, Y22C, L67P, R90K
B6: AAV-binding protein No. 48 (Ala330Gly, Gln347Pro, Lys371Glu) (receptor)
chain: B1 chain with Y20N, A21G, Q38P, K62E, R90K
B7: AAV-binding protein No. 35 (Gln347Leu, Thr373Ala) (receptor)
chain: B1 chain with Y20N, Q38L, T64A, R90K
B8: AAV-binding protein No. 38 (Gln365Arg, Gln415Leu) (receptor)
chain: B1 chain with Y20N, Q56R, R90K, Q106L
B9: AAV-binding protein No. 39 (Ile366Thr, Gln441Leu) (receptor)
chain: B1 chain with Y20N, I57T, R90K, Q132L
B10: AAV-binding protein No. 57 (Gln334Arg, Val381Ala, His389Arg, Tyr393Cys) (receptor)
chain: B1 chain with Y20N, Q25R, V72A, H80R, Y84C, R90K
B11: AAV-binding protein No. 33 (Tyr344His, His363Arg) (receptor)
chain: B1 chain with Y20N, Y35H, H54R, R90K
B12: AAV-binding protein No. 56 (Asn324Ser, Thr341Ala, Leu369Pro, Phe416Ser) (receptor)
chain: B1 chain with N15S, Y20N, T32A, L60P, R90K, F107S
B13: AAV-binding protein No. 46 (Asn329Asp, Ile366Thr, Lys368Arg) (receptor)
chain: B1 chain with Y20D, I57T, K59R, R90K
B14: AAV-binding protein No. 42 (Ile319Phe, Pro322Leu, Lys448Arg) (receptor)
chain: B1 chain with I10F, P13L, Y20N, R90K, K139R
B15: AAV-binding protein No. 40 (Phe379Ser, Lys455Arg) (receptor)
chain: B1 chain with Y20N, F70S, R90K, K146R
B16: AAV-binding protein No. 37 (Gln365Arg, His389Gln) (receptor)
chain: B1 chain with Y20N, Q56R, H80Q, R90K
B17: AAV-binding protein No. 34 (Trp346Arg, Glu458Gly) (receptor)
chain: B1 chain with Y20N, W37R, R90K, E149G
B18: AAV-binding protein No. 41 (Glu453Gly, Ser476Arg) (receptor)
chain: B1 chain with Y20N, R90K, E144G, S167R
B19: AAV-binding protein No. 51 (Leu333Pro, Pro337Leu, Thr350Met) (receptor)
chain: B1 chain with Y20N, L24P, P28L, T41M, R90K
B20: AAV-binding protein No. 55 (Gln365Arg, Ser370Ala, Glu391Lys) (receptor)
chain: B1 chain with Y20N, Q56R, S61A, E82K, R90K
B21: AAV-binding protein No. 31 (Tyr342His, Ile349Thr) (receptor)
chain: B1 chain with Y20N, Y33H, I40T, R90K
B22: AAV-binding protein No. 52 (Leu348Pro, Leu376Pro, Val396Ala) (receptor)
chain: B1 chain with Y20N, L39P, L67P, V87A, R90K
B23: AAV-binding protein No. 54 (His363Leu, Ser364Pro, His389Leu) (receptor)
chain: B1 chain with Y20N, H54L, S55P, H80L, R90K
B24: AAV-binding protein No. 111 (AVR8g + Lys(Glu)362Gly) (receptor)
chain: B1 chain with V8D, Y20N, Y33C, K53G, K62N, G81S, R90E, S167R, N178D
notes: Glu362 of AVR8g replaced by Gly
B25: AAV-binding protein No. 120 (AVR8g + Lys380Glu) (receptor)
chain: B1 chain with V8D, Y20N, Y33C, K53E, K62N, K71E, G81S, R90E, S167R, N178D
B26: AAV-binding protein No. 135 (AVR8g + Glu335Gly, Gln386Arg) (receptor)
chain: MGSAGESDQITLPKNEVQLNAYVLQGPPKGETCTYDWQLITHPRDYSGEMEGEHSQILKLSNLTPGLYEFKVIVEGRNAHSEGYVNVTVEPEPRKNRPPIAIVSPQFQEISLPTTSTVIDGSQSTDDDKIVQYHWEELKGPLREEKISEDTAILKLSKLVPGNYTFRLTVVDSDGATDSTTANLTVNKAVDHHHHHH
B27: AAV-binding protein No. 114 (AVR8g + Leu372Pro) (receptor)
chain: B26 chain with G26E, L63P, R77Q
B28: AAV-binding protein No. 116 (AVR8g + Thr373Ala) (receptor)
chain: B26 chain with G26E, T64A, R77Q
B29: AAV-binding protein No. 127 (AVR8g + Asp483Asn) (receptor)
chain: B26 chain with G26E, R77Q, D174N
B30: AAV-binding protein No. 123 (AVR8g + Tyr393Cys) (receptor)
chain: B26 chain with G26E, R77Q, Y84C
B31: AAV-binding protein No. 133 (AVR8g + Gln327Leu, Lys(Asn)371Asp) (receptor)
chain: B26 chain with Q18L, G26E, N62D, R77Q
notes: Asn371 of AVR8g replaced by Asp
B32: AAV-binding protein No. 108 (AVR8g + Met359Leu) (receptor)
chain: B26 chain with G26E, M50L, R77Q
B33: AAV-binding protein No. 106 (AVR8g + Tyr355Cys) (receptor)
chain: B26 chain with G26E, Y46C, R77Q
B34: AAV-binding protein No. 104 (AVR8g + Tyr344Phe) (receptor)
chain: B26 chain with G26E, Y35F, R77Q
B35: AAV-binding protein No. 103 (AVR8g + Glu340Val) (receptor)
chain: B26 chain with G26E, E31V, R77Q
B36: AAV-binding protein No. 134 (AVR8g + Asn329Ile, Val499Ile) (receptor)
chain: B26 chain with N20I, G26E, R77Q, V190I
B37: AAV-binding protein No. 128 (AVR8g + Ser312Pro, Pro374Leu) (receptor)
chain: B26 chain with S3P, G26E, P65L, R77Q
B38: AAV-binding protein No. 124 (AVR8g + Gln441Arg) (receptor)
chain: B26 chain with G26E, R77Q, Q132R
B39: AAV-binding protein No. 110 (AVR8g + Glu360Val) (receptor)
chain: B26 chain with G26E, E51V, R77Q
B40: AAV-binding protein No. 129 (AVR8g + Ala313Ser, Glu378Gly) (receptor)
chain: B26 chain with A4S, G26E, E69G, R77Q
B41: AAV-binding protein No. 132 (AVR8g + Gln327His, Glu378Val) (receptor)
chain: B26 chain with Q18H, G26E, E69V, R77Q
B42: AAV-binding protein No. 122 (AVR8g + Gln386Arg) (receptor)
chain: B26 chain with G26E
B43: AAV-binding protein No. 109 (AVR8g + Glu360Lys) (receptor)
chain: B26 chain with G26E, E51K, R77Q
B44: AAV-binding protein No. 125 (AVR8g + His443Leu) (receptor)
chain: B26 chain with G26E, R77Q, H134L
B45: AAV-binding protein No. 126 (AVR8g + Lys448Glu) (receptor)
chain: B26 chain with G26E, R77Q, K139E
B46: AAV-binding protein No. 121 (AVR8g + Val381Ala) (receptor)
chain: B26 chain with G26E, V72A, R77Q
B47: AAV-binding protein No. 107 (AVR8g + Ser356Cys) (receptor)
chain: B26 chain with G26E, S47C, R77Q
B48: AAV-binding protein No. 115 (AVR8g + Leu372Gln) (receptor)
chain: B26 chain with G26E, L63Q, R77Q
B49: AAV-binding protein No. 119 (AVR8g + Phe379Ser) (receptor)
chain: B26 chain with G26E, F70S, R77Q
B50: AAV-binding protein No. 131 (AVR8g + Asn324Ser, Gly357Cys) (receptor)
chain: B26 chain with N15S, G26E, G48C, R77Q
B51: AAV-binding protein No. 130 (AVR8g + Lys323Arg, Glu384Val) (receptor)
chain: B26 chain with K14R, G26E, E75V, R77Q
B52: AAV-binding protein No. 105 (AVR8g + Arg353Cys) (receptor)
chain: B26 chain with G26E, R44C, R77Q
B53: AAV-binding protein No. 113 (AVR8g + Ile366Thr) (receptor)
chain: B26 chain with G26E, I57T, R77Q
B54: AAV-binding protein No. 117 (AVR8g + Leu376Pro) (receptor)
chain: B26 chain with G26E, L67P, R77Q
B55: AAV-binding protein No. 112 (AVR8g + Ser364Leu) (receptor)
chain: B26 chain with G26E, S55L, R77Q
B56: AAV-binding protein No. 118 (AVR8g + Glu378Gly) (receptor)
chain: B26 chain with G26E, E69G, R77Q

These binders were tested against T1, VLP2 (virus-like particles of AAV2) (AAV2, UniProt P03135 1-735; P03135 1-598; P03135 1-533) (assay: ELISA on VLP2; binding after 43°C 15 min / untreated).
T1 construct: Empty AAV2 capsid; background says about 60 protein molecules, VP1:VP2:VP3 = 1:1:10; Immobilised on the ELISA plate
T1 sequence (P03135 whole entry, chain 1 of 3): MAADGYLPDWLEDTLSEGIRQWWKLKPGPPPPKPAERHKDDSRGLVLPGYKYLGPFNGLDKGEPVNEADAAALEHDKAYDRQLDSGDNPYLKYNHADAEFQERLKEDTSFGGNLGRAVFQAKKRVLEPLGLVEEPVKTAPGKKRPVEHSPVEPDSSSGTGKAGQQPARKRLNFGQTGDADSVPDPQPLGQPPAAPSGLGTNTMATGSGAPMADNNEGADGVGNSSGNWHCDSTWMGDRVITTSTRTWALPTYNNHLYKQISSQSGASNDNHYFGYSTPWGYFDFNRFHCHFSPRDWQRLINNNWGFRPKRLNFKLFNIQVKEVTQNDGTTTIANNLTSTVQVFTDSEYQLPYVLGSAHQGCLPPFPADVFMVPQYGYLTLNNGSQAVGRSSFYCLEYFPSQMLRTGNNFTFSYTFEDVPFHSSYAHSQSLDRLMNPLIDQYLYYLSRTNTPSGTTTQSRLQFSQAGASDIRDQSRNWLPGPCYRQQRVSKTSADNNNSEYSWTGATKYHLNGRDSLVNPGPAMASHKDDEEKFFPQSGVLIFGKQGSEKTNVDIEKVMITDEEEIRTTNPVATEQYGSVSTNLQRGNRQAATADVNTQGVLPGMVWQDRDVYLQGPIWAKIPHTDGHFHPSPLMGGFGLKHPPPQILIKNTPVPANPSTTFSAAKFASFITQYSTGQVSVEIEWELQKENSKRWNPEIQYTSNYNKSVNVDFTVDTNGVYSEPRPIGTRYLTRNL
T1 sequence (P03135 139-735, tags left off, chain 2 of 3): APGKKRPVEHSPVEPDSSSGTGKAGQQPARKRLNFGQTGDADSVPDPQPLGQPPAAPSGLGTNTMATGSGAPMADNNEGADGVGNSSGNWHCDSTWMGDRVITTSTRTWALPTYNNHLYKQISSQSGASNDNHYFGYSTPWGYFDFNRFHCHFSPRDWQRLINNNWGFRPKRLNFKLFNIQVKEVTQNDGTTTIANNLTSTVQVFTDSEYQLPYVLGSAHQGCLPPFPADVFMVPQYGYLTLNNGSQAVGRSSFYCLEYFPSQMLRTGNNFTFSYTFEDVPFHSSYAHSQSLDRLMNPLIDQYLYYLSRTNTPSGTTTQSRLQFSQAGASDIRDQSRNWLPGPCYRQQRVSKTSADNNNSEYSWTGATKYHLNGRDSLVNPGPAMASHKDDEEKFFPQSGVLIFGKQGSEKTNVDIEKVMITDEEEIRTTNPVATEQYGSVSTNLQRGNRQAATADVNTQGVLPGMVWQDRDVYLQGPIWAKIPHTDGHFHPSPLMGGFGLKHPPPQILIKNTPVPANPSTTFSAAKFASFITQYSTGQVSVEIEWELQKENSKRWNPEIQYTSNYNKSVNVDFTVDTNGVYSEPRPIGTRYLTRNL
T1 sequence (P03135 203-735, chain 3 of 3): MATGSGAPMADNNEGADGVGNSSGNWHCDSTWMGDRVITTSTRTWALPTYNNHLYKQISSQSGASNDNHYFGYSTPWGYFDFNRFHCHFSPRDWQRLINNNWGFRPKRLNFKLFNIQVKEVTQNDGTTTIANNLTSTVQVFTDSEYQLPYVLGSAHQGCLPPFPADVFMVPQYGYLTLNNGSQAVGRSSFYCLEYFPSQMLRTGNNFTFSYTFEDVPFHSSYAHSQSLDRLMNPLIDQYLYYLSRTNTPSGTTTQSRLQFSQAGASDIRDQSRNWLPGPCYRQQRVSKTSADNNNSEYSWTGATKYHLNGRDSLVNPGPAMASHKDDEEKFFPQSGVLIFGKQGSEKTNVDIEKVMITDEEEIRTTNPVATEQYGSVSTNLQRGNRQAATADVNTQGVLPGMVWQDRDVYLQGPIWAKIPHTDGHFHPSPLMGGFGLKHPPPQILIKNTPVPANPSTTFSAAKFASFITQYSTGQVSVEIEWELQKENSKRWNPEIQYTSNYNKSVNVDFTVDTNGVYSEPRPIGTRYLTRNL

Binder	Residual activity [%]
B1	61.9
B2	83.7
B3	80.3
B4	76.1
B5	74.4
B6	88.4
B7	85.9
B8	65.3
B9	65.5
B10	79
B11	82.2
B12	81.3
B13	49.3
B14	56.6
B15	77.4
B16	70.1
B17	78.1
B18	56.1
B19	66.7
B20	65.7
B21	66.8
B22	80.9
B23	87.2

Each binder was assayed against T1, VLP2 (virus-like particles of AAV2) (assay: ELISA on VLP2; binding after pH 10.0 41.2°C 15 min / untreated).

Binder	Residual activity [%]
B24	41.1
B25	59.5
B26	36.3
B27	91.6
B28	57.8
B29	23.3
B30	60.5
B31	62.1
B32	32.4
B33	63.8
B34	40.3
B35	35
B36	63.9
B37	74.9
B38	25.2
B39	33.3
B40	67.5

Binder	Residual activity [%]
B41	56.5
B42	34.9
B43	40.2
B44	36.5
B45	34.5
B46	89.9
B47	67.6
B48	72.8
B49	24.3
B50	70.3
B51	63.1
B52	62.1
B53	41.4
B54	76.7
B55	45.3
B56	66.7
